Substitutions are numbered along the chain they refer to. Names and notes keep the numbering of the source.
Key:
[1] = target: the molecule itself; experiment: SDS-PAGE under non-reducing and reducing conditions; purified GOLPH2-Δ(1–55) and cysteine mutants boiled with 0 to 100 mM 2-mercaptoethanol, 10% SDS-PAGE; shows disulfide-linked oligomers
[2] = target: the molecule itself; experiment: native gel or EMSA; native-PAGE of purified GOLPH2-Δ(1–55) and cysteine mutants, loaded directly or boiled with 2% SDS and 140 mM 2-mercaptoethanol; BSA monomer, dimer and tetramer as markers
[3] = target: the molecule itself; experiment: SDS-PAGE under non-reducing conditions with immunoblot; lysates of HeLa cells 36 h after transfection with pCR3.1-GOLPH2-FLAG or mutants; immunoblot with FLAG antibody

B1: GOLPH2-Δ(1–55) (domain or fragment, human, UniProt Q8NBJ4 56-401, looked up)
chain: AAAERGAVELKKNEFQGELEKQREQLDKIQSSHNFQLESVNKLYQDEKAVLVNNITTGERLIRVLQDQLKTLQRNYGRLQQDVLQFQKNQTNLERKFSYDLSQCINQMKEVKEQCEERIEEVTKKGNEAVASRDLSENNDQRQQLQALSEPQPRLQAAGLPHTEVPQGKGNVLGNSKSQTPAPSSEVVLDSKRQVEKEETNEIQVVNEEPQRDRLPQEPGREQVVEDRPVGGRGFGGAGELGQTPQVQAALSVSQENPEMEGPERDQLVIPDGQEEEQEAAGEGRNQQKLRGEDDYNMDENEAESETDKQAALAGNDRNIDVFNVEDQKRDTINLLDQREKRNHTL
notes: Golgi phosphoprotein 2 (GOLPH2, GP73, GOLM1), human, residues 1-55 deleted; C-terminal luminal region, amino acids 56-401; also called purified wild-type GOLPH2; GOLPH2-Δ(1–55) fusion protein; source: E. coli BL21 (DE3), pET22b(+), purified (Ni-NTA)
B1: binds [1].

B2: GOLPH2-Δ(1–55) C159A (domain or fragment, human, UniProt Q8NBJ4 56-401, looked up)
chain: B1 chain with C104A
notes: GOLPH2 (GP73, GOLM1), human, residues 1-55 deleted (amino acids 56-401), C159A; also called single mutant C159A; source: E. coli BL21 (DE3), pET22b(+), purified (Ni-NTA)
B2: binds [2].

B3: GOLPH2-Δ(1–55) C159A-C170A (domain or fragment, human, UniProt Q8NBJ4 56-401, looked up)
chain: B1 chain with C104A, C115A
notes: GOLPH2 (GP73, GOLM1), human, residues 1-55 deleted (amino acids 56-401), C159A and C170A; Monomer on non-reducing SDS-PAGE, same migration as the wild type on native-PAGE; also called double mutant C159A–C170A; source: E. coli BL21 (DE3), pET22b(+), purified (Ni-NTA)
B3: binds [2].

B4: GOLPH2-Δ(1–55) C170A (domain or fragment, human, UniProt Q8NBJ4 56-401, looked up)
chain: B1 chain with C115A
notes: GOLPH2 (GP73, GOLM1), human, residues 1-55 deleted (amino acids 56-401), C170A; also called single mutant C170A; source: E. coli BL21 (DE3), pET22b(+), purified (Ni-NTA)
B4: binds [1].

B5: GOLPH2-FLAG (wild-type, full length) (natural protein, human, UniProt Q8NBJ4 1-401, looked up)
chain: MMGLGNGRRSMKSPPLVLAALVACIIVLGFNYWIASSRSVDLQTRIMELEGRVRRAAAERGAVELKKNEFQGELEKQREQLDKIQSSHNFQLESVNKLYQDEKAVLVNNITTGERLIRVLQDQLKTLQRNYGRLQQDVLQFQKNQTNLERKFSYDLSQCINQMKEVKEQCEERIEEVTKKGNEAVASRDLSENNDQRQQLQALSEPQPRLQAAGLPHTEVPQGKGNVLGNSKSQTPAPSSEVVLDSKRQVEKEETNEIQVVNEEPQRDRLPQEPGREQVVEDRPVGGRGFGGAGELGQTPQVQAALSVSQENPEMEGPERDQLVIPDGQEEEQEAAGEGRNQQKLRGEDDYNMDENEAESETDKQAALAGNDRNIDVFNVEDQKRDTINLLDQREKRNHTL
notes: Golgi phosphoprotein 2 (GOLPH2, GP73, GOLM1), human, full-length cDNA from Huh7 cells; also called pCR3.1-GOLPH2-FLAG; wild-type GOLPH2; source: HeLa, transfected, in lysate; not shown: FLAG, C-terminal, kept
B5 was tested, and the “stoichiometry N” value [3] was 2.
